The values that follow come from the supplement of paper PMC10567573.

B1: NEK8 (parent)
chain: YTFGSNQHGQLGTNTRRGSRAPCK
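Note: lentivirally expressed fusions sorted by FACS into six bins by GFP to DsRed ratio, PSI derived from sequencing read proportions per bin multiplied by bin number.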

In this data set the parent is B1. The data set can be described thus: protein stability index of a GFP-peptide fusion (GPS, HEK-293T) (PSI 1-6); higher = more stable. Conditions: c terminus: a fixed tail appended.
Take YTFGSNQHGLLGTNTRRGSRAPCK [Q10L]: the protein stability index was found to be 3.36.

For YTFGSNQHGGLGTNTRRGSRAPCK [Q10G], the protein stability index was 4.08.

YTFGSNQHGCLGTNTRRGSRAPCK [Q10C]: the protein stability index was 3.36.

For the variant YTFGSNQHGNLGTNTRRGSRAPCK [Q10N], the protein stability index worked out at 3.83.

Regarding YTFGSNQHGELGTNTRRGSRAPCK [Q10E], the protein stability index was determined as 4.33.

Take YTFGSNQHGYLGTNTRRGSRAPCK [Q10Y]: the protein stability index turned out to be 3.52.

Turning to YTFGSNQHGHLGTNTRRGSRAPCK [Q10H], the protein stability index is 3.89.

With YTFGSNQHGALGTNTRRGSRAPCK [Q10A], the protein stability index stood at 4.21.

For the variant YTFGSNQHGRLGTNTRRGSRAPCK [Q10R], the protein stability index is 3.82.

YTFGSNQHGKLGTNTRRGSRAPCK [Q10K]: the protein stability index was 3.41.

With YTFGSNQHGPLGTNTRRGSRAPCK [Q10P], the protein stability index stood at 4.

As to YTFGSNQHGDLGTNTRRGSRAPCK [Q10D], the protein stability index turned out to be 4.45.

Take YTFGSNQHGTLGTNTRRGSRAPCK [Q10T]: the protein stability index was found to be 4.32.

As for YTFGSNQHGWLGTNTRRGSRAPCK [Q10W], the protein stability index came out at 1.52.

With YTFGSNQHGMLGTNTRRGSRAPCK [Q10M], the protein stability index came to 3.58.

As for YTFGSNQHGSLGTNTRRGSRAPCK [Q10S], the protein stability index was found to be 3.58.

YTFGSNQHGILGTNTRRGSRAPCK [Q10I]: the protein stability index amounted to 3.47.

On to YTFGSNQHGQLGPNTRRGSRAPCK [T13P], for which the protein stability index came to 4.45.

As for YTFGSNQHGQLGMNTRRGSRAPCK [T13M], the protein stability index is 3.72.

For YTFGSNQHGQLGGNTRRGSRAPCK [T13G], the protein stability index turned out to be 4.43.

Take YTFGSNQHGQLGQNTRRGSRAPCK [T13Q]: the protein stability index turned out to be 4.35.

As to YTFGSNQHGQLGENTRRGSRAPCK [T13E], the protein stability index worked out at 4.37.

As for YTFGSNQHGQLGWNTRRGSRAPCK [T13W], the protein stability index came to 3.22.

With YTFGSNQHGQLGFNTRRGSRAPCK [T13F], the protein stability index was determined as 3.31.

Regarding YTFGSNQHGQLGYNTRRGSRAPCK [T13Y], the protein stability index turned out to be 3.62.

For the variant YTFGSNQHGQLGCNTRRGSRAPCK [T13C], the protein stability index turned out to be 3.13.

As to YTFGSNQHGQLGINTRRGSRAPCK [T13I], the protein stability index is 3.15.

With YTFGSNQHGQLGDNTRRGSRAPCK [T13D], the protein stability index came out at 4.44.

In the case of YTFGSNQHGQLGLNTRRGSRAPCK [T13L], the protein stability index was found to be 3.58.

For YTFGSNQHGQLGNNTRRGSRAPCK [T13N], the protein stability index was determined as 4.06.

Take YTFGSNQHGQLGKNTRRGSRAPCK [T13K]: the protein stability index was 3.79.

As for YTFGSNQHGQLGHNTRRGSRAPCK [T13H], the protein stability index amounted to 4.35.

YTFGSNQHGQLGVNTRRGSRAPCK [T13V]: the protein stability index is 3.67.

Turning to YTFGSNQHGQLGANTRRGSRAPCK [T13A], the protein stability index came to 4.44.

For the variant YTFGSNQHGQLGSNTRRGSRAPCK [T13S], the protein stability index came out at 4.3.

Turning to YTFGSNQHGQLGRNTRRGSRAPCK [T13R], the protein stability index turned out to be 4.11.

Consider YTFGSKQHGQLGTNTRRGSRAPCK [N6K], for which the protein stability index was found to be 3.44.

As for YTFGSHQHGQLGTNTRRGSRAPCK [N6H], the protein stability index stood at 3.75.

For YTFGSDQHGQLGTNTRRGSRAPCK [N6D], the protein stability index was 4.24.

On to YTFGSTQHGQLGTNTRRGSRAPCK [N6T], for which the protein stability index came out at 3.54.

With YTFGSAQHGQLGTNTRRGSRAPCK [N6A], the protein stability index amounted to 3.94.

As to YTFGSCQHGQLGTNTRRGSRAPCK [N6C], the protein stability index came to 3.78.

Consider YTFGSWQHGQLGTNTRRGSRAPCK [N6W], for which the protein stability index is 3.06.

With YTFGSYQHGQLGTNTRRGSRAPCK [N6Y], the protein stability index turned out to be 3.48.

Consider YTFGSRQHGQLGTNTRRGSRAPCK [N6R], for which the protein stability index was 4.18.

For YTFGSMQHGQLGTNTRRGSRAPCK [N6M], the protein stability index is 3.44.

As for YTFGSIQHGQLGTNTRRGSRAPCK [N6I], the protein stability index stood at 3.6.

For the variant YTFGSLQHGQLGTNTRRGSRAPCK [N6L], the protein stability index turned out to be 3.29.

As for YTFGSEQHGQLGTNTRRGSRAPCK [N6E], the protein stability index stood at 4.44.

Regarding YTFGSFQHGQLGTNTRRGSRAPCK [N6F], the protein stability index stood at 2.61.

Turning to YTFGSVQHGQLGTNTRRGSRAPCK [N6V], the protein stability index came out at 3.75.

In the case of YTFGSGQHGQLGTNTRRGSRAPCK [N6G], the protein stability index was determined as 3.52.

Turning to YTFGSSQHGQLGTNTRRGSRAPCK [N6S], the protein stability index was 3.86.

Turning to YTFGSQQHGQLGTNTRRGSRAPCK [N6Q], the protein stability index amounted to 4.21.

As to YTFGSPQHGQLGTNTRRGSRAPCK [N6P], the protein stability index worked out at 4.07.

As for YTFGSNQHGQLITNTRRGSRAPCK [G12I], the protein stability index turned out to be 3.79.

As to YTFGSNQHGQLPTNTRRGSRAPCK [G12P], the protein stability index stood at 4.43.

Regarding YTFGSNQHGQLNTNTRRGSRAPCK [G12N], the protein stability index is 4.18.

Turning to YTFGSNQHGQLMTNTRRGSRAPCK [G12M], the protein stability index came to 3.84.

On to YTFGSNQHGQLVTNTRRGSRAPCK [G12V], for which the protein stability index was found to be 4.11.

Take YTFGSNQHGQLETNTRRGSRAPCK [G12E]: the protein stability index was 4.19.

Regarding YTFGSNQHGQLYTNTRRGSRAPCK [G12Y], the protein stability index turned out to be 3.83.

Turning to YTFGSNQHGQLATNTRRGSRAPCK [G12A], the protein stability index turned out to be 4.36.

YTFGSNQHGQLTTNTRRGSRAPCK [G12T]: the protein stability index worked out at 4.32.

For the variant YTFGSNQHGQLKTNTRRGSRAPCK [G12K], the protein stability index turned out to be 3.98.

As for YTFGSNQHGQLRTNTRRGSRAPCK [G12R], the protein stability index came to 4.11.

Consider YTFGSNQHGQLDTNTRRGSRAPCK [G12D], for which the protein stability index was 4.68.

Consider YTFGSNQHGQLLTNTRRGSRAPCK [G12L], for which the protein stability index worked out at 4.15.

Turning to YTFGSNQHGQLHTNTRRGSRAPCK [G12H], the protein stability index was 4.37.

Regarding YTFGSNQHGQLQTNTRRGSRAPCK [G12Q], the protein stability index is 3.93.

With YTFGSNQHGQLCTNTRRGSRAPCK [G12C], the protein stability index came to 3.71.

On to YTFGSNQHGQLFTNTRRGSRAPCK [G12F], for which the protein stability index came out at 3.09.

As to YTFGSNQHGQLSTNTRRGSRAPCK [G12S], the protein stability index was found to be 3.97.

As for YTFGSNQHGQLWTNTRRGSRAPCK [G12W], the protein stability index is 2.73.

With YTFGANQHGQLGTNTRRGSRAPCK [S5A], the protein stability index was 3.63.

As for YTFGFNQHGQLGTNTRRGSRAPCK [S5F], the protein stability index worked out at 2.23.

For YTFGMNQHGQLGTNTRRGSRAPCK [S5M], the protein stability index worked out at 4.11.

Regarding YTFGDNQHGQLGTNTRRGSRAPCK [S5D], the protein stability index came out at 4.53.

As for YTFGKNQHGQLGTNTRRGSRAPCK [S5K], the protein stability index amounted to 3.5.

On to YTFGQNQHGQLGTNTRRGSRAPCK [S5Q], for which the protein stability index came out at 4.01.

For the variant YTFGGNQHGQLGTNTRRGSRAPCK [S5G], the protein stability index is 3.86.

On to YTFGNNQHGQLGTNTRRGSRAPCK [S5N], for which the protein stability index was determined as 4.14.

For the variant YTFGINQHGQLGTNTRRGSRAPCK [S5I], the protein stability index stood at 3.44.

Consider YTFGVNQHGQLGTNTRRGSRAPCK [S5V], for which the protein stability index is 4.09.

As for YTFGPNQHGQLGTNTRRGSRAPCK [S5P], the protein stability index was 3.84.

Take YTFGYNQHGQLGTNTRRGSRAPCK [S5Y]: the protein stability index was determined as 2.49.

YTFGTNQHGQLGTNTRRGSRAPCK [S5T]: the protein stability index was 4.36.

YTFGWNQHGQLGTNTRRGSRAPCK [S5W]: the protein stability index was determined as 2.67.

For the variant YTFGRNQHGQLGTNTRRGSRAPCK [S5R], the protein stability index turned out to be 3.96.

Take YTFGHNQHGQLGTNTRRGSRAPCK [S5H]: the protein stability index was determined as 3.66.

For the variant YTFGLNQHGQLGTNTRRGSRAPCK [S5L], the protein stability index was found to be 3.62.

For the variant YTFGENQHGQLGTNTRRGSRAPCK [S5E], the protein stability index worked out at 4.61.

Regarding YTFGCNQHGQLGTNTRRGSRAPCK [S5C], the protein stability index was determined as 3.72.

Turning to YTFGSNQHGQLGTATRRGSRAPCK [N14A], the protein stability index stood at 3.38.
